Laboratory results reported in US20140127683.
Like-named read-outs stand apart in the source and are kept apart here.

What was measured:
[1] = biological target: T1, mYOX1 (Naegleria gruberi) (UniProt D2W6T1); settings: LC-MS, 20 uM mYOX1, Bis-TRIS pH 6.0, Fe(II), alpha-ketoglutarate
T1 sequence: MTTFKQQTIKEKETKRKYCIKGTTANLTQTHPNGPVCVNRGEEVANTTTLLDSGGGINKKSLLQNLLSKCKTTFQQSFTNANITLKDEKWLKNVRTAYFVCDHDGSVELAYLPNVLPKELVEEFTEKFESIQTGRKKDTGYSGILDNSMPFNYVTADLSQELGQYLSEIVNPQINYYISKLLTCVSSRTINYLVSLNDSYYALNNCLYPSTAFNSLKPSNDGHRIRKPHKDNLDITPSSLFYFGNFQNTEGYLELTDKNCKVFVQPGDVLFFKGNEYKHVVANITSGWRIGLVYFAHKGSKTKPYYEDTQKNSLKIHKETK

[2] = biological target: T1, mYOX1 (Naegleria gruberi); settings: LC-MS after NaBH4 reduction and T4-BGT, caC 29.3%, ghmC 67.7%, mC 3.0%

Substance: IMR90 genomic DNA
- activity (% 5mC oxidized) ([1]; caC 89.1%, hmC 1.7%, fC 8.7%, mC 0.5%): 99.5

Substance: MG1655 genomic DNA
- activity (% 5mC oxidized) [2]: 97

Substance: pTXB1-M.SssI plasmid
- activity (% 5mC oxidized) ([1]; caC 91.2%, hmC 1.8%, fC 5.9%, mC 1.0%): 99
